The values that follow come from US6926883B1, “Group (VII) transition-metal complexes with multidentate aminopolycarboxylate ligands and a kit for producing them” (Mallinckrodt Inc, priority 1999, dated 2005).

Data set [1] in a line: in vivo. Set-up: species or system Lewis rats. Particulars: male, Lewis, rat, iv, 50 uCi, total radioactivity. As to the method: (§1) These studies were performed to evaluate the biodistribution and imaging potential of these compounds in Lewis rats bearing CA20948 rat pancreatic tumor implants. For each study, six (6) male Lewis rats bearing CA20948 tumor implants were anesthetized with Metofane gas and injected via the jugular vein with 200 μL (using the compounds of Example 2) or 50 μL (using the compound of Example 3) of test article containing ˜50 μCi of activity. The animals were imaged for 100K counts under a gamma camera at 30 minute (n=3) and 4 hours (n=3) post injection after which time they were sacrificed and the following tissues removed for assay: blood, liver, kidneys, muscle, spleen, pancreas, small intestines, adrenals and tumor. The data are presented as % injected dose per gram and % injected dose per whole organ. The comparative data are also represented graphically.

For data set [2], the system named is CA20948 rat pancreatic tumor implants. Briefly: in vivo. The arrangement: species or system Lewis rats. As to the method: as §1
Details of data set [3]: species or system Lewis rats. Particulars: rat, in vivo. As to the method: During the general biodistribution studies, one additional animal per study was ligated to prevent urination prior to injection. The animal was kept anesthetized for 3 hours post injection, and was subsequently sacrificed, urine removed. The volume and activity of the urine was measured, and a sample was analyzed by HPLC using the method described above.

Data set [4] in a line: in vivo. The format is in vivo, Lewis rats. The note with it: Lewis, rat, in vivo, total radioactivity. As to the method:
(§2) Two rats for each group were used. Group 1 received 500 μL PBS administered subcutaneously in the nape of the neck 30 minutes prior to the injection of [^99mTc(CO)3(DTPA′-Y^3-Octreotate)]. Group 2 received 350 μg Y^3-Octreotate in 500 μL phosphate buffered saline (PBS) administered subcutaneously in the nape of the neck 30 minutes prior to the injection of [^99mTc(CO)3(DTPA′-Y^3-Octreotate)].
(§3) 30 minutes after injection of the cold peptide or saline control, the animals were anesthetized with Metofane gas and injected with 50 μL (50 μCi) of [^99mTc(CO)3(DTPA′-Y^3-Octreotate)]. At three hours post injection the animals were sacrificed, blood samples taken, and then the rats were scintigraphed for 100K counts (FIG. 3). At the conclusion of the scintigraphy, the animals were necropsied, and the following tissues removed for radioassay: liver, kidneys, muscle, spleen, heart, pancreas, adrenals, and tumor. The data were calculated as % injected dose per gram and % injected dose per whole organ.

Another data set has as its target T1, SST-2 Receptors (Rattus norvegicus, UniProt P30680).
T1 construct: from tissue; host or cells: Lewis rats bearing CA20948 tumor implants
The experiment in a line: in vivo. Particulars: 350 μg cold Y3-Octreotate 30 minutes prior; three hours post injection. The class given is in vivo, Lewis rats. The method, then:
as §2, §3

The term tissue uptake denotes the share of the injected amount in each gram of the tissue.

T1 sequence (P30680 whole entry): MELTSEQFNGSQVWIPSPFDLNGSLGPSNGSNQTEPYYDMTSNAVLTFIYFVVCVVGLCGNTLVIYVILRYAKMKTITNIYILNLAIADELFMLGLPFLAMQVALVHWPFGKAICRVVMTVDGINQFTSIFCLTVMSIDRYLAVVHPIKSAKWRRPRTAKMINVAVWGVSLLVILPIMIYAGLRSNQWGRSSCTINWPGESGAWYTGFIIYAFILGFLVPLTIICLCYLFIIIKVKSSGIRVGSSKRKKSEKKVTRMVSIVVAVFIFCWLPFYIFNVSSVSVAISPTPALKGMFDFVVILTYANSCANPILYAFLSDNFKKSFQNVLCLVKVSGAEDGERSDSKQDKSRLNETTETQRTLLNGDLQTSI

`C[C@@H](O)[C@H](NC(=O)[C@@H]1CSSC[C@H](NC(=O)[C@@H](Cc2ccccc2)NC(=O)CN(CCN(CCN(CC(=O)O)CC(=O)O)CC(=O)O)CC(=O)O)C(=O)N[C@@H](Cc2ccc(O)cc2)C(=O)N[C@H](Cc2c[nH]c3ccccc23)C(=O)N[C@@H](CCCCN)C(=O)N[C@@H]([C@@H](C)O)C(=O)N1)C(=O)O` [MP-2138, Tc-99m(CO)3-n-DTPA-Tyr-3-Octreotate, metal not drawn]: the tissue uptake at 0.5 h was determined as 0.735 ± 0.027 %ID/g in the data set “in vivo [1]” (Blood % ID/g); 5.282 ± 0.014 %ID/g in the data set “in vivo [1]” (Kidney % ID/g); 0.567 ± 0.015 %ID/g in the data set “in vivo [1]” (Liver % ID/g); 1.56 ± 0.11 %ID/g in the data set “in vivo [1]” (Pancreas % ID/g); 0.847 ± 0.078 %ID/g in “in vivo [1]” (Tumor % ID/g). Further, the tissue uptake at 4 h was 0.218 ± 0.01 %ID/g in “in vivo [1]” (Blood % ID/g); 5.703 ± 0.052 %ID/g in “in vivo [1]” (Kidney % ID/g); 0.516 ± 0.034 %ID/g in the data set “in vivo [1]” (Liver % ID/g); 1.76 ± 0.089 %ID/g in “in vivo [1]” (Pancreas % ID/g); 0.822 ± 0.13 %ID/g in the data set “in vivo [1]” (Tumor % ID/g). In addition, the tissue to tissue ratio at 0.5 h in “in vivo [1]” (Tumor/Blood) came to 1.1; in “in vivo [1]” (Tumor/Kidney), 0.14; in “in vivo [1]” (Tumor/Liver), 1.3. Further, the tissue to tissue ratio at 4 h amounted to 3.7 in “in vivo [1]” (Tumor/Blood), 0.14 in “in vivo [1]” (Tumor/Kidney) and 1.6 in “in vivo [1]” (Tumor/Liver).

Regarding “Tc-99m(CO)3-His-Tyr-3-Octreotate [MP-2377, reference compound]”, in data set [2], the “Blood (% ID/g at 4 hours p.i.)” value turned out to be 0.03 % ID/g, the “Kidney (% ID/g at 4 hours p.i.)” value is recorded as 1.64 % ID/g, the “Liver (% ID/g at 4 hours p.i.)” value was 0.28 % ID/g and the “Pancreas (% ID/g at 4 hours p.i.)” value worked out at 2.67 % ID/g. Further, the “Tumor (% ID/g at 4 hours p.i.)” value in data set [2] came to 1.00 % ID/g. Besides, in data set [3], the “Activity of Urine” value amounted to 5.8 μCi, the “Metabolism: state of compound in urine by HPLC analysis” value is “essentially intact” and the “Volume of Urine” value was found to be 1.5 mL.

On to “Tc-99m(CO)3-iso-DTPA-Tyr-3-Octreotate [MP-2423]”, for which the Tumor/Liver in data set [2] was determined as 3.

On to `C[C@@H](O)[C@H](NC(=O)[C@@H]1CSSC[C@H](NC(=O)[C@@H](Cc2ccccc2)NC(=O)CC(C(=O)O)N(CCN(CC(=O)O)CC(=O)O)CCN(CC(=O)O)CC(=O)O)C(=O)N[C@@H](Cc2ccc(O)cc2)C(=O)N[C@H](Cc2c[nH]c3ccccc23)C(=O)N[C@@H](CCCCN)C(=O)N[C@@H]([C@@H](C)O)C(=O)N1)C(=O)O` (stereo partly drawn) [MP-2148, Tc-99m(CO)3-DTPA′-Tyr-3-Octreotate, metal not drawn], for which the tissue uptake at 0.5 h was found to be 0.471 ± 0.035 %ID/g in “in vivo [1]” (Blood % ID/g); 2.14 ± 0.12 %ID/g in the data set “in vivo [1]” (Kidney % ID/g); 0.494 ± 0.011 %ID/g in “in vivo [1]” (Liver % ID/g); 1.15 ± 0.032 %ID/g in the data set “in vivo [1]” (Pancreas % ID/g); 0.793 ± 0.041 %ID/g in “in vivo [1]” (Tumor % ID/g). The tissue uptake at 4 h in the data set “in vivo [1]” (Blood % ID/g) stood at 0.114 ± 0.005 %ID/g; in the data set “in vivo [1]” (Blood (% ID/g at 4 hours p.i.)), 0.083 %ID/g; in the data set “in vivo [1]” (Kidney % ID/g) it was 3.14 ± 0.08 %ID/g; in “in vivo [1]” (Kidney (% ID/g at 4 hours p.i.)), 3.27 %ID/g; in the data set “in vivo [1]” (Liver % ID/g) it was 0.363 ± 0.022 %ID/g; in the data set “in vivo [1]” (Liver (% ID/g at 4 hours p.i.)) it was 0.19 %ID/g. The tissue uptake at 4 h in “in vivo [1]” (Pancreas % ID/g) was determined as 0.956 ± 0.054 %ID/g; in the data set “in vivo [1]” (Pancreas (% ID/g at 4 hours p.i.)), 0.99 %ID/g; in the data set “in vivo [1]” (Tumor % ID/g), 0.769 ± 0.069 %ID/g; in the data set “in vivo [1]” (Tumor (% ID/g at 4 hours p.i.)) it was 1.06 %ID/g. Besides, the tissue to tissue ratio at 0.5 h in the data set “in vivo [1]” (Tumor/Blood) was 1.7; in the data set “in vivo [1]” (Tumor/Kidney) it was 0.37; in the data set “in vivo [1]” (Tumor/Liver), 1.6. The tissue to tissue ratio at 4 h was 6.7 in the data set “in vivo [1]” (Tumor/Blood), 0.25 in “in vivo [1]” (Tumor/Kidney) and 2.1 in “in vivo [1]” (Tumor/Liver). In addition, in data set [2], the “Amount of activity in the liver and GI tract compared to [99mTc(CO)3(His-Y3-Octreotate)]” value was “significantly less”. In data set [2], the “Biodistribution characteristics vs iso-DTPA-Y3-Octreotate and n-DTPA-Y3-Octreotate” value is on record as “better biodistribution characteristics”. Also, in data set [2], the “Hepatobiliary uptake and clearance compared to [99mTc(CO)3(His-Y3-Octreotate)]” value is “less hepatobiliary uptake and clearance”. In addition, the “Activity of Urine” value in data set [3] was 10.4 μCi. Besides, the “Metabolism: state of compound in urine by HPLC analysis” value in data set [3] is recorded as “essentially intact”. Besides, in data set [3], the “Volume of Urine” value came out at 1.5 mL. Also, the tissue uptake dose at 3 h in the data set “in vivo [4]” (50 uCi, Adrenals % ID/organ) was determined as 0.042 %ID; in the data set “in vivo [4]” (50 uCi, Blood % ID/organ), 1.44 %ID; in the data set “in vivo [4]” (50 uCi, Heart % ID/organ), 0.049 %ID; in “in vivo [4]” (50 uCi, Kidneys % ID/organ), 6.82 %ID; in the data set “in vivo [4]” (50 uCi, Liver % ID/organ), 2.35 %ID; in “in vivo [4]” (50 uCi, Muscle % ID/organ), 6.6 %ID. The tissue uptake dose at 3 h is 0.762 %ID in “in vivo [4]” (50 uCi, Pancreas % ID/organ); 0.044 %ID in “in vivo [4]” (50 uCi, Spleen % ID/organ); 5.18 %ID in the data set “in vivo [4]” (50 uCi, Tumor % ID/organ); 0.008 %ID in the data set “in vivo [4]” (Adrenals % ID/organ); 1.59 %ID in “in vivo [4]” (Blood % ID/organ); 0.057 %ID in “in vivo [4]” (Heart % ID/organ). Also, the tissue uptake dose at 3 h was 6.24 %ID in the data set “in vivo [4]” (Kidneys % ID/organ); 2.61 %ID in the data set “in vivo [4]” (Liver % ID/organ); 6.93 %ID in the data set “in vivo [4]” (Muscle % ID/organ); 0.052 %ID in “in vivo [4]” (Pancreas % ID/organ); 0.042 %ID in the data set “in vivo [4]” (Spleen % ID/organ); 0.493 %ID in “in vivo [4]” (Tumor % ID/organ). Also, the tissue uptake at 3 h amounted to 0.115 %ID/g in “in vivo [4]” (50 uCi, Blood % ID/g); 0.062 %ID/g in the data set “in vivo [4]” (50 uCi, Heart % ID/g); 2.98 %ID/g in the data set “in vivo [4]” (50 uCi, Kidneys % ID/g); 0.236 %ID/g in the data set “in vivo [4]” (50 uCi, Liver % ID/g); 0.058 %ID/g in the data set “in vivo [4]” (50 uCi, Muscle % ID/g); 0.916 %ID/g in “in vivo [4]” (50 uCi, Pancreas % ID/g). Moreover, the tissue uptake at 3 h in “in vivo [4]” (50 uCi, Spleen % ID/g) came out at 0.081 %ID/g; in “in vivo [4]” (50 uCi, Tumor % ID/g) it was 1.11 %ID/g. In addition, at SST-2 Receptors, the “Reduction of uptake in the adrenals in somatostatin receptor-blocked animals” value came to 81%. At SST-2 Receptors, the “Reduction of uptake in the pancreas in somatostatin receptor-blocked animals” value was 95%. For the same molecule, the “Reduction of uptake in the tumor in somatostatin receptor-blocked animals” value on SST-2 Receptors turned out to be 90%.
